B1: scFv-yeast clone 10_12 (scFv, V domains shown)
VH: not shown
VL: NFMLTQPHSVSESPGKTITISCTRSSGSIAGNYVQWYQQRPGSAPIIVIYEDNQRPSGVPDRFSGSIDSSSNSASLTISRLKTEDEADYYCQSYEASNVVFGGGTKLTVL
B2: scFv-yeast clone 3_7 (scFv, V domains shown)
VH: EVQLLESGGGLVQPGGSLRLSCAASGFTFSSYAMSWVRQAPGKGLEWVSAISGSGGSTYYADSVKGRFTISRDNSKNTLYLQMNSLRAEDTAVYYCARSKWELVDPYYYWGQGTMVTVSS
VL: B1 VL
B3: scFv-yeast clone 3_17 (scFv, V domains shown)
VH: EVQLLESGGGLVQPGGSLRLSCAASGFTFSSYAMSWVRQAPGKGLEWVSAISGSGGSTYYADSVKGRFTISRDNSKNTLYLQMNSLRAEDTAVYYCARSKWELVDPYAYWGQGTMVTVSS
VL: B1 VL
B4: scFv-yeast clone 10_3 (scFv, V domains shown)
VH: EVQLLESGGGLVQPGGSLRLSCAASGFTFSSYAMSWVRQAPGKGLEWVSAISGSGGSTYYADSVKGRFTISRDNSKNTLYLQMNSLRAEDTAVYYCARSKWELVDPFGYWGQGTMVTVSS
VL: B1 VL
B5: scFv-yeast clone 3_14 (scFv, V domains shown)
VH: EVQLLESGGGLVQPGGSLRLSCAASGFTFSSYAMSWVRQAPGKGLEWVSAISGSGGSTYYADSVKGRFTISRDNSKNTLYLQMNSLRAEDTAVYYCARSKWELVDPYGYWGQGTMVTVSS
VL: B1 VL
B6: scFv-yeast clone 3_3 (scFv, V domains shown)
VH: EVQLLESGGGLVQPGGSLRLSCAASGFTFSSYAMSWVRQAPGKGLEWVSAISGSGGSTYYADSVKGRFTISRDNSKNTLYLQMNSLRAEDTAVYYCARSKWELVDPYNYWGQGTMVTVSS
VL: B1 VL
B7: wild type anti-PD-L1 scFv PD-L1_1 displayed on yeast (scFv, V domains shown)
VH: not shown
VL: B1 VL
B8: mAb 10_3 (IgG4 converted from scFv 10_3) (antibody, V domains shown)
VH: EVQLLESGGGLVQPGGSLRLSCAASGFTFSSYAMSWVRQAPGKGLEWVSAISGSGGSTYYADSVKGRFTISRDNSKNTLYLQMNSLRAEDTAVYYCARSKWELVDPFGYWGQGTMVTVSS
VL: B1 VL

As a reminder, the Kd is the constant that tells how readily two partners part at equilibrium.

The target of the first experiment is recombinant human PD-L1, Fc-tagged (rhPD-L1-Fc) (human, UniProt Q9NZQ7 19-238). Kind of experiment: FACS.
recombinant human PD-L1, Fc-tagged (rhPD-L1-Fc), sequence (Q9NZQ7 19-238): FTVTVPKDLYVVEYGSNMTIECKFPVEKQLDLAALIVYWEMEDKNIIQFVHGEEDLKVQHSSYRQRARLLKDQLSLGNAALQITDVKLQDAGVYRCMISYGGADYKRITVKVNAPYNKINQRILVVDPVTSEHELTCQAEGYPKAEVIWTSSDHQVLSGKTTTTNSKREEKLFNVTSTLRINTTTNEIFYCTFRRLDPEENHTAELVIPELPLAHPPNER
Regarding B1, the Kd turned out to be 0.73 nM. Take B2: the Kd amounted to 0.68 nM. On the same count and under the same terms, the result for B3 reads 0.46 nM; that for B4, 0.5 nM.

With B5, the Kd was found to be 0.58 nM. Same read-out and setting: the result for B6 reads 0.6 nM.

As for B7, the Kd was 4.55 nM.

For a further experiment, the target named is PD-L1 expressed in its native conformation on activated human PBMCs (human (endogenous in hPBMCs), UniProt Q9NZQ7 19-290). Kind of experiment: FACS. (In general: A flow cytometer gives signals particle by particle.)
PD-L1 expressed in its native conformation on activated human PBMCs, sequence (Q9NZQ7 19-290): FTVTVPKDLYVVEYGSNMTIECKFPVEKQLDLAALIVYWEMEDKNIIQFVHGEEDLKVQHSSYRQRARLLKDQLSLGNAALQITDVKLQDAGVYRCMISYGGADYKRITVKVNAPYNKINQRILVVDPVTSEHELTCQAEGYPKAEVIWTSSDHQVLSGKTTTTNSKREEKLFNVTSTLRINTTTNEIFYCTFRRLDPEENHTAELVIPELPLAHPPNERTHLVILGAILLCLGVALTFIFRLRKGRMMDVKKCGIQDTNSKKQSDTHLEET
B8 yielded a Kd of 2 nM.

The values above are taken from PMC6959147 (2019).
